Assay results from patent publication US12559537B2, “Nucleic acid encoding NKP30 receptor targeted therapeutics” (THE TRUSTEES OF DARTMOUTH COLLEGE, priority 2011, dated 2026).

Test system: K562 target cells
Experiment: Cytotoxicity-blocking with soluble NKp30 (LDH release)
Assay type: cell-based, human
Conditions: 10 μg/ml, K562 targets, E:T 5:1, 5-h LDH release
Method: FIG. 7C further illustrates that lysis was mediated by the chimeric NKp30 constructs. […] Effector T cells modified with wtNKp30 or NKp30-CD28-3ζ were cocultured with target cells K562 in the presence of 10 μg/ml NKp30-mIgG2a or mouse IgG at a ratio of 5:1; the percentage of specific lysis was determined after a 5-h LDH-release assay. The data are presented as mean+/−SD and are representative of two independent experiments.
The cytotoxic activity of chimeric NKp30-modified human T cells against various tumor cell lines was determined. […] To confirm that chimeric NKp30-mediated killing is dependent on the interactions between NKp30 and its ligands, soluble NKp30 (NKp30-mIgG2a) was incubated with K562 target cells prior to the coculture with T cells.
Cytotoxicity of T cells against target cells was determined by an LDHrelease assay using the CytoTox 96 Non-Radioactive Cytotoxicity Assay kit (Promega, Madison, WI). Specific lysis was determined using the following equation: percentage of specific lysis=[(experimental−effector spontaneous−target spontaneous)/(target maximum−target spontaneous)]×100. In the cytotoxicity-blocking experiments, K562 target cells were preincubated with a soluble NKp30 receptor, NKp30-mIgG2a ([…]), for 30 min before coculture with T cells in an LDH-release assay.

Substance: NKp30-mIgG2a: soluble fusion protein: extracellular portion of human NKp30 fused to the mouse IgG2a hinge-CH2-CH3 portion
- NKp30-28-3ζ-bearing T cell-mediated cytotoxicity in presence of soluble NKp30: significantly reduced
